Measured values as given in patent US20170058005A1 (priority 2014, published 2017).
“Also recorded” adds a separate entry of the source.

Assays:
[1] = target: DRB1*0301 (DR3) (Homo sapiens, UniProt P01903+P01911, A100K/A102G/A103R/A169T/F55Y/I96L/K41T/L162R/M171V/P40S/Q125H/Q178H/Q39Y/R42S/S66N/T106N/T262R/W38E/Y61H); type: binding
[2] = target: DRB1*1501 (DR15) (Homo sapiens, UniProt P01903+P01911); type: binding
[3] = target: DRB1*0701 (DR7) (Homo sapiens, UniProt P01903+P01911, A100R/A102G/A103Q/D57E/D86V/E43K/F76Y/K127E/L162R/M171V/P40G/Q125H/Q99D/R33Q/R42Y/R54Q/S133A/S66F/T210M/V115G/Y107V/Y59L/Y89S); type: binding
[4] = target: DRB1*1101 (DR11) (Homo sapiens, UniProt P01903+P01911, A100R/A169T/A87E/I96F/K41T/L162R/M171V/P40S/Q125H/Q178H/Q39Y/Q99D/R42S/S66Y/T262R/V115G/W38E); type: binding
[5] = target: DRB1*0101 (DR1) (Homo sapiens, UniProt P01903+P01911, A100R/D57E/F55L/F60I/F76Y/I96L/L162R/M171V/P40L/Q125E/R42F/V115G/Y59C); type: binding
[6] = target: DRB1*0401 (DR4) (Homo sapiens, UniProt P01903+P01911, A100K/A169T/F76Y/I96L/K127E/L162R/M171V/N62H/P40V/Q125Y/R42H/S133A/S149N/S66Y/V115G/V209L/W38E); type: binding
[7] = tested on: HLA-DR molecules; type: binding, human
[8] = target: DRB1*1301 (DR13) (Homo sapiens, UniProt P01903+P01911, A100E/A169T/K41T/L162R/M171V/P40S/Q125H/Q178H/Q39Y/Q99D/R42S/S66N/T262R/W38E/Y61H); type: binding
[9] = tested on: CD4^+ T cells of HLA class II transgenic mice; type: cell-based

| Sequence | Relative binding affinity of peptide to HLA-DR molecules, DR3 [1] | Relative binding affinity of peptide to HLA-DR molecules, DR15 [2] | Relative binding affinity of peptide to HLA-DR molecules, DR7 [3] | Relative binding affinity of peptide to HLA-DR molecules, DR11 [4] | Relative binding affinity of peptide to HLA-DR molecules, DR1 [5] | Relative binding affinity of peptide to HLA-DR molecules, DR4 [6] | Binding across all HLA-DR alleles assayed [7] | Relative binding affinity of peptide to HLA-DR molecules, DR13 [8] | CD4 T cell response in LF immunized HLA transgenics [9] | HLA-restriction based on CD4 T cell response class II HLA transgenics after priming with LF [9] |
| --- | --- | --- | --- | --- | --- | --- | --- | --- | --- | --- |
| PESRSILLHGPSKGVELRND | 354 | 17 | 51 | 120 | 7 | 22 | strong to moderate binding across all seven HLA-DR alleles | 21 | elicited a T cell response in a single HLA transgenic strain; also recorded: immunodominant epitopes in HLA-DR15 transgenics | DR15 |
| NKALGLPKYTKLITFNVHNR | 250 | 3 | 4 | 2 | 0 | 10 | strong to moderate binding across all seven HLA-DR alleles | 19 | – | DR1 |
| AKAFAYYIEPQHRDVLQLYA | 39 | 8 | 97 | 4 | 115 | 51 | strong to moderate binding across all seven HLA-DR alleles | 9 | – | DR1 |
| EAQLNINQEWNKALGLPKYT | 173 | 1 | 68 | 100 | 104 | 43 | strong to moderate binding across all seven HLA-DR alleles | 17 | DQB1*0302 restricted | DR15, DQ8 |
| VENTEKALNVYYEIGKILSR | 418 | 0.2 | 36 | 0.03 | 1 | 81 | strong to moderate binding across all seven HLA-DR alleles | 71 | – | DR1 |
| EQYTHQDEIYEQVHSKGLYV | 245 | 13 | 0 | 35 | 1 | 237 | strong to moderate binding across all seven HLA-DR alleles | 15 | immunodominant epitope in both HLA-DR1 and HLA-DR15 transgenics | DRI |
